{"source": "patent US20030021774", "proteins": {"B1": {"name": "protease derived from Bacillus sp. NCIMB 40484 (protein)", "chain": "MKFKKIAALSLATSLALFPAFGGSSLAKEAPKPFQPINKTLDKGAFESGEVIVKFKDGVSKKAQGSALNKAEANEQKASAKDPFQVLEVADVDQAVKALENNPNVEYAEPNYTFQATWSPNDPYYSAYQYGPQNTSTPAAWDVTRGSSTQTVAVLDSGVDYNHPDLARKVIKGYDFIDRDNNPMDLNGHGTHVAGTVAADTNNGIGVAGMAPDTKILAVRVLDANGSGSLDSIASGIRYAADQGAKVLNLSLGCECNSTTLKSAVDYAWNKGAVVVAAAGNDNVSRTFQPASYPNAIAVGAIDSNDRKASFSNYGTWVDVTAPGVNIASTVPNNGYSYMSGTSMASPHVAGLAALLASQGKNNVQIRQAIEQTADKISGTGTNFKYGKINSNKAVRY"}}, "key": {"[1]": {"target": "soybean agglutinin (SBA), P05046", "sequence (P05046 33-285)": "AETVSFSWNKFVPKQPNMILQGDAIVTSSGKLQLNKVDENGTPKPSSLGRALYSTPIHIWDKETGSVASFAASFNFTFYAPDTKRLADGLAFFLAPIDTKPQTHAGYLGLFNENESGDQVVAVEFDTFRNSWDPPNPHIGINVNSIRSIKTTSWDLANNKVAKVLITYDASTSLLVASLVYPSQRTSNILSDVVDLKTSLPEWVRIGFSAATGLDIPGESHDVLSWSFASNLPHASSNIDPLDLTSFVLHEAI"}, "[2]": {"target": "T1, soybean Bowman-Birk Inhibitor, P01055", "T1 chain": "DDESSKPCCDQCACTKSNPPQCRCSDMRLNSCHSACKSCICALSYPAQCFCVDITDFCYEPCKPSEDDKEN"}, "[3]": {"target": "T2, Soybean Kunitz Trypsin Inhibitor, P01070", "T2 chain": "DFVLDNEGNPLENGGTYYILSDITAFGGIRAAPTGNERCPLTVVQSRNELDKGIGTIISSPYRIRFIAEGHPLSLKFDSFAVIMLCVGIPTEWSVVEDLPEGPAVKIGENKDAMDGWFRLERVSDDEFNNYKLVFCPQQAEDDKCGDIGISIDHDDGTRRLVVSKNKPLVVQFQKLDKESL"}}}
{"protein": "B1", "values": [{"measurement": "% of anti-nutritional factor degraded (SDS-PAGE band scanning)", "setting": "[1]", "result": 21, "unit": "%"}, {"measurement": "% of anti-nutritional factor degraded (SDS-PAGE band scanning)", "setting": "[2]", "result": 41, "unit": "%"}, {"measurement": "% of anti-nutritional factor degraded (SDS-PAGE band scanning)", "setting": "[3]", "result": 100, "unit": "%"}]}
